Measured values published in publication PMC4176372, “The interplay of primer-template DNA phosphorylation status and single-stranded DNA binding proteins in directing clamp loaders to the appropriate polarity of DNA” (Nucleic Acids Research, 2014).
Values belong to the molecule of their own block, whether it stands above or below them.

Legend:
[1] = molecular target: replication protein A (RPA) (UniProt P22336)
[2] = molecular target: replication protein A (RPA) (UniProt P22336); remark: listed apart in the source
[3] = molecular target: T1, Saccharomyces cerevisiae clamp loader replication factor C (RFC) with a full-length Rfc1 subunit (S. cerevisiae, UniProt P38630 1-861; P40348 1-353; P38629 1-340; P40339 1-323; P38251 1-354); experiment: stopped-flow fluorescence (PCNA-AF488_2 clamp closing); sequential mixing: 20 nM RFC, 20 nM PCNA-AF488_2 and 0.5 mM ATP incubated 4 s, then mixed with 40 nM 5′DNA pre-bound to 400 nM RPA, ATP and 200 nM unlabeled PCNA; 20°C; 30 mM HEPES pH 7.5, 150 mM NaCl, 10 mM MgCl2, 10% glycerol, 100 mM maltose; conditions: both partners purified
T1 construct: Rfc1 subunit of S. cerevisiae RFC; Rfc2 subunit of S. cerevisiae RFC; Rfc3 subunit of S. cerevisiae RFC; Rfc4 subunit of S. cerevisiae RFC; Rfc5 subunit of S. cerevisiae RFC; Pentamer of Rfc1-5; source: E. coli BL21 (DE3) Rosetta, expressed from a single plasmid, purified (HighTrap SP, HighTrap heparin, MonoQ); copies: 1 + 1 + 1 + 1 + 1

[4] = molecular target: T1, Saccharomyces cerevisiae clamp loader …; experiment: stopped-flow fluorescence (PCNA-MDCC release from RFC); PCNA labeled with MDCC on the surface to which RFC binds; fluorescence of the RFC·PCNA-MDCC complex is greater than that of unbound PCNA-MDCC; release followed after mixing with DNA substrates with and without bound SSB/RPA; 20°C; single exponential fit; conditions: both partners purified

replication protein A (RPA), sequence (P22336 whole entry, chain 1 of 3): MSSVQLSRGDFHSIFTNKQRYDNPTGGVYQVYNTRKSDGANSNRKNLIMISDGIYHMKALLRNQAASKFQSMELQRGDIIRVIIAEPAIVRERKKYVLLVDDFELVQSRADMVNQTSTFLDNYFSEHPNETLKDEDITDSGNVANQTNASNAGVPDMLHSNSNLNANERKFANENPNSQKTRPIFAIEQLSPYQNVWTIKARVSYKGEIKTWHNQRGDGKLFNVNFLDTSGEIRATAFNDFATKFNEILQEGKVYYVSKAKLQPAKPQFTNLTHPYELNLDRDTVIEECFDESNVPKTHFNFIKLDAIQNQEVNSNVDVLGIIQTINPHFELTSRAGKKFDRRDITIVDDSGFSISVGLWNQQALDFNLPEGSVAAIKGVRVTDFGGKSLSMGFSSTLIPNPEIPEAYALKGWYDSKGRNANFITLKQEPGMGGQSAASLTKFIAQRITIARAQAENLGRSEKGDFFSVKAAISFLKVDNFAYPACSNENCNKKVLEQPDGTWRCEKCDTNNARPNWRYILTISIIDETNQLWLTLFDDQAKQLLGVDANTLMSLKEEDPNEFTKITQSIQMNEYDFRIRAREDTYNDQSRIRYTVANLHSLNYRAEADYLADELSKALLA
replication protein A (RPA), sequence (P26754 whole entry, chain 2 of 3, further chain): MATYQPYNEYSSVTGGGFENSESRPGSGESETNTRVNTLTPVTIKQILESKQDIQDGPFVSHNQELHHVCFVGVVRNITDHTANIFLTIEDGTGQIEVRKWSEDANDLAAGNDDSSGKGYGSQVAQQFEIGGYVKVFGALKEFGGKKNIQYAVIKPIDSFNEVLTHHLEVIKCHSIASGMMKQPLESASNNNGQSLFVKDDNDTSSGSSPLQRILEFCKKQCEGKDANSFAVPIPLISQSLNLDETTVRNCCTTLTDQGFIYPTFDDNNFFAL
replication protein A (RPA), sequence (P26755 whole entry, chain 3 of 3, further chain): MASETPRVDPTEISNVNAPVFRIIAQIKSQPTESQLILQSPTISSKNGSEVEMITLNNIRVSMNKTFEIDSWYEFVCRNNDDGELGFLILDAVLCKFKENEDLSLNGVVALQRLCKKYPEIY

k obs1 of PCNA-AF488 2 closing by RFC on 3′DNA·RPA [1]: 4.4 s⁻¹ | kobs of PCNA-AF488 2 closing by RFC on phosphorylated 5′DNA·RPA [1]: 0.09 s⁻¹ | k obs1 of PCNA closing by RFC on 3′DNA with the non-cognate SSB substituted for RPA [2]: 4.6 s⁻¹ | rate of PCNA closing by RFC on 5′DNA with the non-cognate SSB substituted for RPA [2]: 0.45 s⁻¹
Molecule: Saccharomyces cerevisiae clamp loader replication factor C (RFC) with a full-length Rfc1 subunit (from UniProt P38630 1-861; P40348 1-353; P38629 1-340; P40339 1-323; P38251 1-354) (complex)

binding result [3]: binds
B1: PCNA-AF488_(2) (S. cerevisiae PCNA, C22/62/81S, I111C, I181C, labeled with AF488) (natural protein, UniProt P15873 1-258, looked up)
chain: MLEAKFEEASLFKRIIDGFKDSVQLVNFQCKEDGIIAQAVDDSRVLLVSLEIGVEAFQEYRSDHPVTLGMDLTSLSKILRSGNNTDTLTLIADNTPDSIILLFEDTKKDRCAEYSLKLMDIDADFLKIEELQYDSTLSLPSSEFSKIVRDLSQLSDSINIMITKETIKFVADGDIGSGSVCIKPFVDMEHPETSIKLEMDQPVDLTFGAKYLLDIIKGSSLSDRVGIRLSSEAPALFQFDLKSGFLQFFLAPKFNDEE
modifications: AF488 on the cysteines introduced at positions 111 and 181
notes: proliferating cell nuclear antigen (PCNA), the S. cerevisiae sliding clamp; also called fluorescent PCNA; source: purified as described previously

binding result [4]: binds
B2: PCNA-MDCC (S. cerevisiae PCNA, C22/62/81S, S43C, labeled with MDCC) (natural protein, UniProt P15873 1-258, looked up)
chain: MLEAKFEEASLFKRIIDGFKDSVQLVNFQCKEDGIIAQAVDDCRVLLVSLEIGVEAFQEYRSDHPVTLGMDLTSLSKILRSGNNTDTLTLIADNTPDSIILLFEDTKKDRIAEYSLKLMDIDADFLKIEELQYDSTLSLPSSEFSKIVRDLSQLSDSINIMITKETIKFVADGDIGSGSVIIKPFVDMEHPETSIKLEMDQPVDLTFGAKYLLDIIKGSSLSDRVGIRLSSEAPALFQFDLKSGFLQFFLAPKFNDEE
modifications: MDCC on the cysteine introduced at position 43
notes: proliferating cell nuclear antigen (PCNA), the S. cerevisiae sliding clamp; source: purified as described previously
